Source: publication PMC9352680, “A comprehensive thermodynamic model for RNA binding by the Saccharomyces cerevisiae Pumilio protein PUF4”

T1: PUF4 RNA-binding domain (Saccharomyces cerevisiae, UniProt P25339 537-888)
T1 sequence: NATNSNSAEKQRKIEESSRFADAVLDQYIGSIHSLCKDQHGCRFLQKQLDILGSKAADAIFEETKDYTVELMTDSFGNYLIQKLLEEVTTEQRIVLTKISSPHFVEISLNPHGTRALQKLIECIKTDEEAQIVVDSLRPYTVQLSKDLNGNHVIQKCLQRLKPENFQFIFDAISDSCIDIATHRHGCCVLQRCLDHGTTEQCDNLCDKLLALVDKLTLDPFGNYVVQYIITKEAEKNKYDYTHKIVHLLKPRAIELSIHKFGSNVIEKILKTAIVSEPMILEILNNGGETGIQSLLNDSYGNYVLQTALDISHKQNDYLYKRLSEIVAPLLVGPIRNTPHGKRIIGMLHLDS


biological target: T1, PUF4 RNA-binding domain; assay: Mg; RNA-MaP; 20 mM Na-HEPES pH 7.4, 30 mM KOAc, 0.75 mM MgCl2, 0.1% Tween-20, 5% glycerol, 0.1 mg/mL BSA, 2 mM DTT; 25 C; 0.0125-409.6 nM protein; settings: tags: N-His6-TEV cleaved; C-SNAP kept, Cy3B-labelled; label: tethered on chip by stalled RNA polymerase

Binder | Kd
UCUCUUUGUAUAUAUUAGUUCUCUU (ssRNA) [Id_ii_S1_P4E.3_K4.2_C4.2_[C-2T]_[T-1G]_H4.2_A4.1_F4.1_T4.2] | 3.67 nM
UCUCUUAAUAUAUAUUACGUCUCUU (ssRNA) [Id_ii_S1_P4E.3_K4.2_C4.2_[C-2A]_[T-1A]_H4.2_A4.1_F4.1_T4.2_[G10C]_[T11G]] | 163 nM
UCUCUUUGUGUUUUAUCUCUU (ssRNA) [Ib_S1_P4E.1_K4.1_C4.1_H4.1_[A4G]_A4.1_[A6T]_F4.1_T4.1] | 13.1 nM
UCUCUUUUUAUAUAUUAAAUCUCUU (ssRNA) [Id_ii_S1_P4E.3_K4.2_C4.2_[C-2T]_H4.2_A4.1_F4.1_T4.2_[G10A]_[T11A]] | 55.1 nM
UCUCUUUAUAUAUAUUAACUCUCUU (ssRNA) [Id_ii_S1_P4E.3_K4.2_C4.2_[C-2T]_[T-1A]_H4.2_A4.1_F4.1_T4.2_[G10A]_[T11C]] | 15.7 nM
UCUCUUUCUAUAUAUUACGUCUCUU (ssRNA) [Id_ii_S1_P4E.3_K4.2_C4.2_[C-2T]_[T-1C]_H4.2_A4.1_F4.1_T4.2_[G10C]_[T11G]] | 30.7 nM
UCUCUUUAUAUAUAUUAUCUCUCUU (ssRNA) [Id_ii_S1_P4E.3_K4.2_C4.2_[C-2T]_[T-1A]_H4.2_A4.1_F4.1_T4.2_[G10T]_[T11C]] | 24.5 nM
UCUCUUUGUAUAUAUUAGCUCUCUU (ssRNA) [Id_ii_S1_P4E.3_K4.2_C4.2_[C-2T]_[T-1G]_H4.2_A4.1_F4.1_T4.2_[T11C]] | 3.46 nM
UCUCUUACUAUAUAUUAUAUCUCUU (ssRNA) [Id_ii_S1_P4E.3_K4.2_C4.2_[C-2A]_[T-1C]_H4.2_A4.1_F4.1_T4.2_[G10T]_[T11A]] | 27.2 nM
UCUCUUUUUAUAUAUUAACUCUCUU (ssRNA) [Id_ii_S1_P4E.3_K4.2_C4.2_[C-2T]_H4.2_A4.1_F4.1_T4.2_[G10A]_[T11C]] | 31.8 nM
UCUCUUUGUGUGUUAUCUCUU (ssRNA) [Ib_S1_P4E.1_K4.1_C4.1_H4.1_[A4G]_A4.1_[A6G]_F4.1_T4.1] | 43.8 nM
UCUCUUUGUCUGUUAUCUCUU (ssRNA) [Ib_S1_P4E.1_K4.1_C4.1_H4.1_[A4C]_A4.1_[A6G]_F4.1_T4.1] | 626 nM
UCUCUUACUAUAUAUUACCUCUCUU (ssRNA) [Id_ii_S1_P4E.3_K4.2_C4.2_[C-2A]_[T-1C]_H4.2_A4.1_F4.1_T4.2_[G10C]_[T11C]] | 38.3 nM
UCUCUUUCUAUAUAUUAAUUCUCUU (ssRNA) [Id_ii_S1_P4E.3_K4.2_C4.2_[C-2T]_[T-1C]_H4.2_A4.1_F4.1_T4.2_[G10A]] | 39.7 nM
UCUCUUUUUAUAUAUUAUCUCUCUU (ssRNA) [Id_ii_S1_P4E.3_K4.2_C4.2_[C-2T]_H4.2_A4.1_F4.1_T4.2_[G10T]_[T11C]] | 19.8 nM
UCUCUUAAUAUAUAUUAGUUCUCUU (ssRNA) [Id_ii_S1_P4E.3_K4.2_C4.2_[C-2A]_[T-1A]_H4.2_A4.1_F4.1_T4.2] | 26.7 nM

Binder | Kd
UCUCUUUGUAUUAGUAUCUCUU (ssRNA) [Ia_S1_P5E.1_K5.1_C5.1_H5.1_A5.1_F5.1_[T8G]_T5.1] | 18.2 nM
UCUCUUACUAUAUAUUACGUCUCUU (ssRNA) [Id_ii_S1_P4E.3_K4.2_C4.2_[C-2A]_[T-1C]_H4.2_A4.1_F4.1_T4.2_[G10C]_[T11G]] | 51.9 nM
UCUCUUACUAUAUAUUAACUCUCUU (ssRNA) [Id_ii_S1_P4E.3_K4.2_C4.2_[C-2A]_[T-1C]_H4.2_A4.1_F4.1_T4.2_[G10A]_[T11C]] | 33 nM
UCUCUUUCUAUAUAUUAAAUCUCUU (ssRNA) [Id_ii_S1_P4E.3_K4.2_C4.2_[C-2T]_[T-1C]_H4.2_A4.1_F4.1_T4.2_[G10A]_[T11A]] | 61.2 nM
UCUCUUAUUAUAUAUUACCUCUCUU (ssRNA) [Id_ii_S1_P4E.3_K4.2_C4.2_[C-2A]_H4.2_A4.1_F4.1_T4.2_[G10C]_[T11C]] | 39 nM
UCUCUUAAUAUAUAUUAACUCUCUU (ssRNA) [Id_ii_S1_P4E.3_K4.2_C4.2_[C-2A]_[T-1A]_H4.2_A4.1_F4.1_T4.2_[G10A]_[T11C]] | 442 nM
UCUCUUACUAUAUAUUAUCUCUCUU (ssRNA) [Id_ii_S1_P4E.3_K4.2_C4.2_[C-2A]_[T-1C]_H4.2_A4.1_F4.1_T4.2_[G10T]_[T11C]] | 29.3 nM
UCUCUUUGUCUCUUAUCUCUU (ssRNA) [Ib_S1_P4E.1_K4.1_C4.1_H4.1_[A4C]_A4.1_[A6C]_F4.1_T4.1] | 813 nM
UCUCUUUAUAUAUAUUACCUCUCUU (ssRNA) [Id_ii_S1_P4E.3_K4.2_C4.2_[C-2T]_[T-1A]_H4.2_A4.1_F4.1_T4.2_[G10C]_[T11C]] | 29.6 nM
UCUCUUUAUAUAUAUUAGUUCUCUU (ssRNA) [Id_ii_S1_P4E.3_K4.2_C4.2_[C-2T]_[T-1A]_H4.2_A4.1_F4.1_T4.2] | 9.8 nM
UCUCUUUUUAUAUAUUAGUUCUCUU (ssRNA) [Id_ii_S1_P4E.3_K4.2_C4.2_[C-2T]_H4.2_A4.1_F4.1_T4.2] | 8.51 nM
UCUCUUUUUAUAUAUUACGUCUCUU (ssRNA) [Id_ii_S1_P4E.3_K4.2_C4.2_[C-2T]_H4.2_A4.1_F4.1_T4.2_[G10C]_[T11G]] | 30.1 nM
UCUCUUUUUAUAUAUUAGCUCUCUU (ssRNA) [Id_ii_S1_P4E.3_K4.2_C4.2_[C-2T]_H4.2_A4.1_F4.1_T4.2_[T11C]] | 10.3 nM
UCUCUUAAUAUAUAUUACAUCUCUU (ssRNA) [Id_ii_S1_P4E.3_K4.2_C4.2_[C-2A]_[T-1A]_H4.2_A4.1_F4.1_T4.2_[G10C]_[T11A]] | 48.9 nM
UCUCUUUCUAUAUAUUAUAUCUCUU (ssRNA) [Id_ii_S1_P4E.3_K4.2_C4.2_[C-2T]_[T-1C]_H4.2_A4.1_F4.1_T4.2_[G10T]_[T11A]] | 34.9 nM
